Values of other authors, collected in publication PMC3898597.

Experiments:
Assay in all cases: SPR
[1] = molecular target: transducin heterotrimer (Gt) (Bos taurus) (UniProt P04695)
[2] = molecular target: Gαt (Bos taurus) (UniProt P04695)
[3] = molecular target: Gβ1γ1 (Bos taurus) (UniProt P62871)

Sequence of rhodopsin (P02699 whole entry): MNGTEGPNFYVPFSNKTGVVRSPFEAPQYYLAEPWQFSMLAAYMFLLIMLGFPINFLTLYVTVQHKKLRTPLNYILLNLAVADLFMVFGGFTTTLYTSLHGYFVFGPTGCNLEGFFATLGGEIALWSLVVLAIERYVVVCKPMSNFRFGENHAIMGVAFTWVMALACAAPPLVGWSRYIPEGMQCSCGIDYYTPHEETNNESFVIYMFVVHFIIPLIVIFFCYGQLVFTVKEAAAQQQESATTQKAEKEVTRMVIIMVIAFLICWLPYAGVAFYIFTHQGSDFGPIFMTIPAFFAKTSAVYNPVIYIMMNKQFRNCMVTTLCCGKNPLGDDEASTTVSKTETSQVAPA
Sequence of transducin heterotrimer (Gt) (Bos taurus) (P04695 2-350, chain 1 of 3): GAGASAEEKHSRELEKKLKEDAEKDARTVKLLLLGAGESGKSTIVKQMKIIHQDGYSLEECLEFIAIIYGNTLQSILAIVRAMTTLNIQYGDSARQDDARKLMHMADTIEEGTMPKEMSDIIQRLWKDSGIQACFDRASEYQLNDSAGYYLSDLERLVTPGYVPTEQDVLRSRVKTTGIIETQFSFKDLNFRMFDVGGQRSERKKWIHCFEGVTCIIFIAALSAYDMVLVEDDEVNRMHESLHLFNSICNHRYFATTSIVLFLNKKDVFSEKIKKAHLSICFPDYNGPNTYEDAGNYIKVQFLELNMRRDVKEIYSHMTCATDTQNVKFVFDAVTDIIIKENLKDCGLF
Sequence of transducin heterotrimer (Gt) (Bos taurus) (P62873 2-340, chain 2 of 3, further chain): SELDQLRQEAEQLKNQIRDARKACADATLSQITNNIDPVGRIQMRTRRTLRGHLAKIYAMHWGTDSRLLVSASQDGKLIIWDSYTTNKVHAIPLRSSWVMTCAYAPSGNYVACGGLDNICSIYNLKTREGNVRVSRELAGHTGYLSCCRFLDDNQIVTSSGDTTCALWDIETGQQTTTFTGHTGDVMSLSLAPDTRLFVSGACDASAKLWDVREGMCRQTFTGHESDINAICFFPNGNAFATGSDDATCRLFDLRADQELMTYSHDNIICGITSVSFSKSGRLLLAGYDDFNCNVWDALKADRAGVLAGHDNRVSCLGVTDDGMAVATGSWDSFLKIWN
Sequence of transducin heterotrimer (Gt) (Bos taurus) (P02698 2-71, chain 3 of 3, further chain): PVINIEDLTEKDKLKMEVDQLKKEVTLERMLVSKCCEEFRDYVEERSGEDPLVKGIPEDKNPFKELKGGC
Sequence of Gαt (Bos taurus) (P04695 2-350): as the sequence (P04695 2-350, chain 1 of 3) above
Sequence of rhodopsin (recombinant) (P02699 whole entry): as the sequence (P02699 whole entry) above

Row | Kd [1] | Kd [2] | Kd [3] | Substance
1 | 13.6 nM | 300 nM | 300 nM | rhodopsin (from UniProt P02699)
2 | 9.1 nM | – | – | rhodopsin (recombinant) (from UniProt P02699)
